Experiments:
[1] = biological target: T1, DC-SIGN extracellular domain (ECD), wildtype, Q9NNX6; assay: cryo-EM structure; DC-SIGN ECD, single particles; low resolution map, three of the four CRDs visibly resolved; conditions: remark: other sources report otherwise
T1 chain: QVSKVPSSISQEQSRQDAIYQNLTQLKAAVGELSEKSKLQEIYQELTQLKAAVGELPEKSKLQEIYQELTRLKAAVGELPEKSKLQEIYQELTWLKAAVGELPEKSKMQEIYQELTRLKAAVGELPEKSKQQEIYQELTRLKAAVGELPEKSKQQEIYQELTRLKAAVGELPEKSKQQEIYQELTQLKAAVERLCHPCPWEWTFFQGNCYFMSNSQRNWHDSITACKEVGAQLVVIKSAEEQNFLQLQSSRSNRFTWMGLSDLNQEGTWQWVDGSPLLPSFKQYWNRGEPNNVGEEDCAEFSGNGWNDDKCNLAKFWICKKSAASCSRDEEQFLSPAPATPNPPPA

[2] = biological target: T1, DC-SIGN extracellular domain (ECD), …; assay: dynamic light scattering; purified ECDs; tetrameric state judged from mannan affinity chromatography, DLS and DSF together; conditions: remark: other sources report otherwise

B1: DC-SIGN extracellular domain (ECD), wildtype, Q9NNX6 59-404 (receptor)
chain: T1 chain
stoichiometry N [1]: 4 | stoichiometry N [2]: 4

From publication PMC12933331, “A Cryptic Pocket Allosterically Modulates Oligosaccharide Binding to DC-SIGN” (JACS Au, 2026)
